Data published in paper PMC10719372, “Molecular mechanism of phospholipid transport at the bacterial outer membrane interface” (Nature Communications, 2023).

B1: MlaA^Q205C (of the disulfide-trapped OmpC-MlaA-MlaC complex) (natural protein, E. coli, UniProt P76506 18-251, looked up)
chain: CASSGTDQQGRSDPLEGFNRTMYNFNFNVLDPYIVRPVAVAWRDYVPQPARNGLSNFTGNLEEPAVMVNYFLQGDPYQGMVHFTRFFLNTILGMGGFIDVAGMANPKLQRTEPHRFGSTLGHYGVGYGPYVQLPFYGSFTLRDDGGDMADGFYPVLSWLTWPMSVGKWTLEGIETRAQLLDSDGLLRCSSDPYIMVREAYFQRHDFIANGGELKPQENPNAQAIQDDLKDIDSE
modifications: engineered MlaA^Q205C-MlaC^V171C disulfide bond
notes: MlaA, OM lipoprotein, E. coli; also called MlaA^Cys
B2: OmpC (natural protein, E. coli, UniProt P06996 22-367, looked up)
chain: AEVYNKDGNKLDLYGKVDGLHYFSDNKDVDGDQTYMRLGFKGETQVTDQLTGYGQWEYQIQGNSAENENNSWTRVAFAGLKFQDVGSFDYGRNYGVVYDVTSWTDVLPEFGGDTYGSDNFMQQRGNGFATYRNTDFFGLVDGLNFAVQYQGKNGNPSGEGFTSGVTNNGRDALRQNGDGVGGSITYDYEGFGIGGAISSSKRTDAQNTAAYIGNGDRAETYTGGLKYDANNIYLAAQYTQTYNATRVGSLGWANKAQNFEAVAQYQFDFGLRPSLAYLQSKGKNLGRGYDDEDILKYVDVGATYYFNKNMSTYVDYKINLLDDNQFTRDAGINTDNIVALGLVYQF
notes: OmpC, outer membrane porin, E. coli; In the pull-down with MlaA variants some samples may have held OmpC-His (pDSW206ompC-His) in place of untagged OmpC; also called osmoporin OmpC; trimeric OmpC; source: E. coli BL21(λDE3) ΔompF::kan, over-expressed from pDSW206ompC; in DDM-solubilised lysate (pull-down) and purified with its partners (Ni-NTA, SEC)

Columns and labels:
OmpC [1] = target: B2; assay: cryo-EM structure; disulfide-trapped OmpC3-MlaA^Q205C-MlaC^V171C-His in MSP2N2 nanodiscs with E. coli polar lipids; 2.9 Å overall, density of MlaC limited to 5.0-7.0 Å; details: both partners purified
OmpC [2] = target: B2; assay: SEC-MALS; SEC-purified disulfide-trapped OmpC3-MlaA^Cys-MlaC^Cys-His at 3 mg/ml, Superdex 200 Increase 10/300 GL, TBS pH 8.0 with 0.025% DDM, protein-conjugate analysis; details: both partners purified
[3] = target: the molecule itself; assay: as above

Binder | stoichiometry N (OmpC [1]) | stoichiometry N (OmpC [2]) | stoichiometry N [3]
B1 | 1 to 3 per OmpC trimer | ~2 per OmpC trimer | –
B2 | – | – | 3
